Consider 3 substances from article PMC2673426.

By Kd is commonly meant a measure of binding affinity in units of concentration.

Series [1] deals with T1, dSBP2 (Drosophila melanogaster) (UniProt Q9VSH1).
T1 sequence: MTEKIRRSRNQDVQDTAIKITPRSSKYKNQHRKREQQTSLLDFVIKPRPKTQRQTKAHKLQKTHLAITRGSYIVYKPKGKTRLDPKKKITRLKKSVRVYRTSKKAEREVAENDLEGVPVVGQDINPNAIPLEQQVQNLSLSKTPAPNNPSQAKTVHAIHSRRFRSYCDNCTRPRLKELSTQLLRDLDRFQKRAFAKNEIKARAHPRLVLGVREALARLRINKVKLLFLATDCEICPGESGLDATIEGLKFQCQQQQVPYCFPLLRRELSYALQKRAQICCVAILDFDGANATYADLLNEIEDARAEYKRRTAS
The series is described as follows: EMSA. Background: In EMSA bound probe runs differently from free probe, usually more slowly.

Series [2] concerns the target T2, hSBP2 (Homo sapiens) (UniProt Q96T21).
T2 sequence: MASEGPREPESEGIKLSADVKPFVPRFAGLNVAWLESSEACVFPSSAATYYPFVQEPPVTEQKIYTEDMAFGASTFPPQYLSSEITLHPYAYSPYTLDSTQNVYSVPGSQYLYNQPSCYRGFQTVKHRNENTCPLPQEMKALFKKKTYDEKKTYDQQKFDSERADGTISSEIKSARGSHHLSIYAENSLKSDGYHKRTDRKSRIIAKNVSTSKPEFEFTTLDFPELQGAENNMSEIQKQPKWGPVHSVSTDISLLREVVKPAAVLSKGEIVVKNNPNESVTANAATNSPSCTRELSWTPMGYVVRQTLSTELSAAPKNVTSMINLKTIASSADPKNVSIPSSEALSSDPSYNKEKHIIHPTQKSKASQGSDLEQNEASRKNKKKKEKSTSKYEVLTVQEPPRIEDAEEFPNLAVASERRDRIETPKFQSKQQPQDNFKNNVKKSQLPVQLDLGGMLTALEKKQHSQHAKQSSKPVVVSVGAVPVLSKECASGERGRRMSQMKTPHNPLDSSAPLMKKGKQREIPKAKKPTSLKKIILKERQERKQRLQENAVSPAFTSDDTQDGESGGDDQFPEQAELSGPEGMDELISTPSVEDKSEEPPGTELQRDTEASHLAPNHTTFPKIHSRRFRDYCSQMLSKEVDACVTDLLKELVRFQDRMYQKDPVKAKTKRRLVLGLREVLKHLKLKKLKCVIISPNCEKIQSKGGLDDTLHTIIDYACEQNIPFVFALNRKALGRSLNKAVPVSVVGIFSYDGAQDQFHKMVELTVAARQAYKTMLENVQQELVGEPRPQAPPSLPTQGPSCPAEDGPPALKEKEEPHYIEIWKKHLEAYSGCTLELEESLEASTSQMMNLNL
The series is described as follows: EMSA.

As for dSelH SECIS (form 2), in series [1], the Kd stood at 170 nM.

Substance GPx1 SECIS (form 1) returned a dissociation constant (Kd) in series [2] of 400 nM.

In series [1], dSelK SECIS (form 2) had a Kd of 260 nM.
